Source: patent publication US12098164 (KOREA UNIVERSITY RESEARCH AND BUSINESS FOUNDATION, dated 2024)

Target: human serum albumin (HSA) (human, UniProt P02768 25-609)
Assay: ELISA, HSA coated at 2 ug/ml, anti-His tag primary antibody and HRP secondary antibody, absorbance at 450 nm

Chain of human serum albumin (HSA) (P02768 25-609 limits assumed): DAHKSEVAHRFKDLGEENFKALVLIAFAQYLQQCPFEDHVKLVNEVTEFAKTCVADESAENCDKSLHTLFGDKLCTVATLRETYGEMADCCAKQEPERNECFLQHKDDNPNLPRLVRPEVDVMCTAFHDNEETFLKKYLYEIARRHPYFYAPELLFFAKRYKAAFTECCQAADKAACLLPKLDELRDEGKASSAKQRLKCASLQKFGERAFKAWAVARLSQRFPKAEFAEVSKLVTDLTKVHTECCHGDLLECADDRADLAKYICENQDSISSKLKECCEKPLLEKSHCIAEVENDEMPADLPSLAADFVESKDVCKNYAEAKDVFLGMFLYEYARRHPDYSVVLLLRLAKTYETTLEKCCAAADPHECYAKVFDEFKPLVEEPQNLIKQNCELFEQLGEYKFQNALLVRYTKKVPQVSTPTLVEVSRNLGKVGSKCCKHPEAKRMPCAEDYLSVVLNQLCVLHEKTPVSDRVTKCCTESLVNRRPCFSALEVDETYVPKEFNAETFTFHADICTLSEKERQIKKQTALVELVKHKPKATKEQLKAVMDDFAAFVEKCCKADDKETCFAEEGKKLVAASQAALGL

B1: hepatitis B virus capsid protein nanoparticles (HBVC) (other)
chain: HHHHHHDIDPYKEFGASVELLSFLPSDFFPSIRDLLDTASALYREALESPEHCSPHHTALRQAILCWGELMNLATWVGSNLEDPASRELVVSYVNVNMGLKIRQLLWFHISCLTFGRETVLEYLVSFGVWIRTPPAYRPPNAPILSTLPETTVV
notes: also called HBVC (aff-, ABP-)
  binding result: no binding (tested: 0.001 to 1.5 mg/ml tested)
